This series is described as follows: soluble fraction after stress (log2 fold change); higher = more stays soluble; pooled small domains, quantitative proteomics. To be noted: stress: pH 4. In short, it runs like this:
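Custom libraries of small protein domains were pooled and exposed to pH 4. High-throughput quantitative proteomics then measured the log2 fold change in the amount of each domain still soluble, with higher values meaning more stayed soluble. This soluble-fraction fold change stands for aggregation propensity.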

With “HMGSQELIQLGERIRQKRKDSHLTQETFAEKAGISVNTVSRIEGGQAAMSIEIFAKLVEILDADANELLG”, the “soluble fraction (log2)” value was -1.07.
The figure for “HMGSRAEAKEFLQTMLADGRQLATDMEEARQAHDIADRTLRRARKELNVQVYRDGNAWYWELPTPIK” is -0.567; for “HMGSREVPFSDFISKVESGSVLEVVLRGRQVEGLTDANERFQTQIPNYPALFEILERNQVRTRVEPT” it is -0.814; for “HMGSTATVIASRLNMRASASTTGALLTKIPNGATVTVLGTTGAWSHIRYGSYTGYVMSQYLRING” it is -0.211.
“HMGSTVRIVVPAADIPAYKDIQPSDLEYREVPKDEISEDAVTDPQEVINKYSTSPLYAGWPINKNIIET”: the “soluble fraction (log2)” value is -0.202.
On to “HMGSYANAWQLAEHAAKDMLGEVIYLLDGKEVHAGILETMSAESIKTASAENVDGKVVIRLVSK”, for which the “soluble fraction (log2)” value is -0.371.
As to “HMGSYIGEAKAKEIALSHAGVSASQATFVRSQFEYDDGRAVYDVDFWSGNKEYDYEIDAKSGTIVSYDFD”, the “soluble fraction (log2)” value stood at 0.0669.
In the case of “HMGSYVVQLGAFAIRANAEKLAREVDGSIATSGRFSLVRVGPFTSRGQAEQALAKLRARGYSDALIHSL”, the “soluble fraction (log2)” value is -0.234.
In the case of “HMGTDFRPVFQYVDELVRAGEFTNLKGMIYFTDGRGIFPEKKPDYDAAFVFLDDGYDPPDVPVWAIKLVL”, the “soluble fraction (log2)” value is -0.709.
With “HMGTGSSAERITMLNSILERQIQAMEIQGNPDAPIVNIQKIYTTLQRIVETAGLKDVDQFFMNPLQGQKEM” the figure was -0.407.
Consider “HMGTIRAPMPGTILKINVVDGDSVTKGDVLLILESMKMENSITSPKTGSVTSVYVSEGDPVQHGETLIDL”, for which the “soluble fraction (log2)” value is -1.22.
On to “HMGTISKRINPSGTTVYRAVIRIRKNGYPNFTESRTFSKKSMAAEWVKRREAEIELNPDILFG”, for which the “soluble fraction (log2)” value is -0.0195.
The figure for “HMGTLSLLVQKLMAVGLEGAKASEIVERFDRERIERQINALPSRKIKSSRTGFLIRAIELDIPVE” is -1.31; for “HMGTPKMPLSLYLSMVENLRSLKRFALVNQQVKDGFVFFNDVAGIKRLQELLNYHNTGEKPSE” it is -0.287; for “HMGTRIQAVMEDIQSRIAARTYLPGTRLPSVRAQAQAMQVSVSTVVEAYERLAAEGVIASRPGSGFYVAGP” it is not below 0.43.
As to “HMGTRPAYAADAPNPQKRFIYHRIVDQLRNKATGAPISYRAIAAETGVSVQTVINIKNRMNQMLSEK”, the “soluble fraction (log2)” value is not below 0.43.
Consider “HMGTRPIQIASFSKEENAKRAVEALAKIGITAQPQKSGSATKAVWGVVANGDADLLAKIKAAGFADAYFL”, for which the “soluble fraction (log2)” value was determined as 0.179.
With “HMGTRTILGIDPGSRKTGFGIIRLDGSRTHYVSSGVIRIPDTALPERLKIIFASLNEIIQQFQPQEV”, the “soluble fraction (log2)” value stood at 0.107.
With “HMGTRYVEFVIPGTGNHEVRIVSSNGSRQNVEVAGTYPGGARLRTKVDNGVRRVSFYVDNRLVEEKQ” the figure was -0.0183; with “HMGTSFKITFYKDAFQVDDGPIRMLNDPANQKFVDEVSQGYAPKELIGQGGKAPEIDIIDKRSENAPT”, -0.0971; with “HMGTVFTDIMTDIASGKFPNVFPDSLEAQIQKNVTMAPDKLSATLQYGDKSVILPTTKGKEAAEAAVKAA”, -0.648.
With “HMGTYTSALDGIKGLGKKRKMLLLNTYKSIDVLKSVPLTELSQLIPREVAEALLTKLNRVDD” the figure was 0.116; with “HMGVDASVDSKLDLLSQVLDSDQVKEQLPEAVLEQLAQNLDRWRSLHEESELQDDDIAELNRLLGLFGLG”, -1.67.
Consider “HMGVEKHLRITGTSTVSWKDAIVQAVAEASKTIDYLSNVKIIEQRARIDGKKLVEYFVDLDLSFVID”, for which the “soluble fraction (log2)” value was -0.38.
With “HMGVGITAPLAGNIFKIVVQPGDVVASGDVVLVLEAMKMETEIRAASGGTVSQVLVREGDAVDAGHTLITL” the figure was -1.49.
As to “HMGVGVTAPLAGNIFKIVKQPGDVVASGDVVLILEAMKMETEIRAAAGGTVKQVLVREGDAVDAGHTLMTL”, the “soluble fraction (log2)” value was -1.59.
The figure for “HMGVHSVVPDIKNKHYGEAKAILAANGLSIEISDSIYDRSVAPGTVVESWPKAGAIVKGDRAVFVTLTAF” is -1.17.

(Values after the domain aggregation screens of Martell et al. (2025).)
